Measurements taken from the supplement of paper PMC6757056.
± gives the standard deviation of the averaged measurements.

B1: library; a variant is named by its letters at N, in order (parent)
chain: GCUGUCACCGAGAAACUGUGAAGUAUAUCUUAAACCUGGGCACUUAAAAGAUAUAUGGAGUUAGUAGUGCAACCUGCUCGGUCUGAUGAGUCCNNNNNNGGACGAAACAGC

Legend:
cyclic di-GMP [1] = variants of: B1; test: normalized RNA/DNA level without ligand (relative to sTRSVctl = 100) (log10 (% of sTRSVctl)); HEK293T; ligand: cyclic di-GMP (c-di-GMP-II aptamer); higher = less ribozyme self-cleavage, higher mRNA level; conditions: reporter: mCherry (pCS4076), ligand present: no
In short: (§1)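 Total RNA, extracted with EDTA 72 h after HEK293T cells were transfected with 4 µg per 6-well well of reporter-linked ribozyme switch library plasmids, was reverse-transcribed, amplified, barcoded and sequenced. Ligand, if used, was added 1 h before transfection. RNA level was derived from RNA reads divided by DNA reads and normalized to a spiked-in non-cleaving sequence or to the top sequences. This was multiplied by 100 and log10-transformed, with the top set of 25 sequences and a ≥100 DNA read minimum.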

cyclic di-GMP [2] = variants of: B1; test: normalized RNA/DNA level with ligand (relative to sTRSVctl = 100) (log10 (% of sTRSVctl)); HEK293T; ligand: cyclic di-GMP (c-di-GMP-II aptamer); ligand concentration (+) RNA-Seq: 1 mM; higher = less ribozyme self-cleavage, higher mRNA level; conditions: reporter: mCherry (pCS4076), ligand present: yes
In short: as §1

Variant	normalized RNA/DNA level without ligand (log10) (cyclic di-GMP [1])	normalized RNA/DNA level with ligand (log10) (cyclic di-GMP [2])
CGGUUC	1.55 ± 0.028	1.75 ± 0.069
UCCGAC	1.65 ± 0.062	1.79 ± 0.1
UCCGGA	1.606 ± 0.0039	1.8 ± 0.096
CGAGGC	1.74 ± 0.027	1.85 ± 0.079
CUUAAC	1.679 ± 0.014	1.8 ± 0.079
GUUCCC	1.8 ± 0.021	1.9 ± 0.13
AACCGA	1.5 ± 0.1	1.61 ± 0.089
CCAUCA	1.66 ± 0.052	1.77 ± 0.12
CGUAGC	1.73 ± 0.062	1.83 ± 0.055
GUUACC	1.79 ± 0.059	1.9 ± 0.1
UCCCAC	1.758 ± 0.0044	1.87 ± 0.097
UACUAG	1.697 ± 0.012	1.84 ± 0.09
AGUACG	1.58 ± 0.046	1.74 ± 0.065
CAAUCG	1.77 ± 0.039	1.89 ± 0.16
ACACCC	1.73 ± 0.012	1.86 ± 0.069
ACUCAA	1.52 ± 0.029	1.71 ± 0.099
CUGGGG	1.648 ± 0.0018	1.83 ± 0.19
CUGGGU	1.71 ± 0.033	1.85 ± 0.13
CUGGGA	1.55 ± 0.09	1.74 ± 0.093
UUUAAA	1.654 ± 0.0051	1.79 ± 0.081
GAUUGC	1.685 ± 0.0072	1.84 ± 0.12
GCACGG	1.55 ± 0.053	1.66 ± 0.12
AGCUUC	1.77 ± 0.026	1.9 ± 0.059

Variant	normalized RNA/DNA level without ligand (log10) (cyclic di-GMP [1])	normalized RNA/DNA level with ligand (log10) (cyclic di-GMP [2])
UUCUUU	1.74 ± 0.024	1.9 ± 0.081
AUGGGG	1.56 ± 0.12	1.68 ± 0.08
CUGGCA	1.638 ± 0.015	1.73 ± 0.14
GCCUCC	1.71 ± 0.02	1.84 ± 0.091
UUCGCU	1.77 ± 0.023	1.88 ± 0.087
UUCGCC	1.7 ± 0.051	1.83 ± 0.067
CAUUUC	1.67 ± 0.022	1.82 ± 0.14
AGCAUU	1.66 ± 0.0074	1.84 ± 0.073
AAUCGA	1.49 ± 0.07	1.69 ± 0.094
ACACGC	1.554 ± 0.0051	1.76 ± 0.13
GCGGCU	1.75 ± 0.024	1.91 ± 0.14
UGGCAG	1.847 ± 0.0028	1.93 ± 0.063
GUGUGG	1.74 ± 0.041	1.86 ± 0.11
UUGCUG	1.7171 ± 3.9e-05	1.84 ± 0.14
UUGCUC	1.788 ± 0.015	1.86 ± 0.071
AGAGCC	1.78 ± 0.041	1.88 ± 0.12
GAGAUA	1.69 ± 0.015	1.76 ± 0.099
AAAACU	1.669 ± 0.0017	1.79 ± 0.086
AGGCUG	1.774 ± 0.0035	1.87 ± 0.051
CCCCCU	1.704 ± 0.0062	1.86 ± 0.13
AGGGUU	1.6902 ± 0.0014	1.77 ± 0.056
CCAAGG	1.688 ± 0.013	1.8 ± 0.1
CGCGAU	1.58 ± 0.05	1.79 ± 0.14

Variant	normalized RNA/DNA level without ligand (log10) (cyclic di-GMP [1])	normalized RNA/DNA level with ligand (log10) (cyclic di-GMP [2])
GGUCUA	1.52 ± 0.046	1.72 ± 0.039
ACUAGC	1.6 ± 0.048	1.77 ± 0.12
ACUAGU	1.674 ± 0.011	1.8 ± 0.065
UAGCAU	1.653 ± 0.0034	1.8 ± 0.11
UAGCAG	1.82 ± 0.032	1.85 ± 0.032
AUUGCG	1.713 ± 0.012	1.83 ± 0.09
UUCCUG	1.776 ± 0.017	1.91 ± 0.11
UAGUUA	1.67 ± 0.025	1.83 ± 0.13
UAGUUC	1.71 ± 0.031	1.89 ± 0.057
AGCUAA	1.49 ± 0.02	1.7 ± 0.13
AGCUAU	1.7 ± 0.05	1.84 ± 0.12
UUACAC	1.73 ± 0.034	1.84 ± 0.11
GAAGCC	1.78 ± 0.034	1.89 ± 0.12
AAGAAG	1.46 ± 0.049	1.66 ± 0.093
CGCCAG	1.76 ± 0.075	1.9 ± 0.072
CAGAAU	1.38 ± 0.13	1.53 ± 0.12
UCGGGC	1.83 ± 0.035	1.94 ± 0.086
UCGUGC	1.67 ± 0.017	1.86 ± 0.12
UUCGAC	1.659 ± 0.0063	1.79 ± 0.12
AUUACC	1.73 ± 0.057	1.88 ± 0.052
CUCGUC	1.81 ± 0.032	1.93 ± 0.098
CUCGUU	1.762 ± 0.005	1.86 ± 0.1
CUCGUG	1.63 ± 0.047	1.82 ± 0.088

Variant	normalized RNA/DNA level without ligand (log10) (cyclic di-GMP [1])	normalized RNA/DNA level with ligand (log10) (cyclic di-GMP [2])
AGAGUU	1.6 ± 0.016	1.8 ± 0.14
UGCGGU	1.63 ± 0.035	1.8 ± 0.12
AGGUGU	1.66 ± 0.041	1.77 ± 0.06
CCCACG	1.75 ± 0.018	1.87 ± 0.044
UAGAUC	1.595 ± 0.014	1.82 ± 0.056
UGUCUU	1.73 ± 0.0071	1.88 ± 0.1
GCUCUG	1.629 ± 0.0036	1.8 ± 0.11
ACAUCU	1.6 ± 0.07	1.76 ± 0.092
GGAUAC	1.67 ± 0.049	1.78 ± 0.16
CUAGGC	1.74 ± 0.03	1.89 ± 0.11
CAUGAU	1.57 ± 0.027	1.73 ± 0.13
UCUGCC	1.8 ± 0.045	1.91 ± 0.064
UCACAG	1.667 ± 0.0019	1.83 ± 0.083
UAACUG	1.73 ± 0.017	1.84 ± 0.13
UACUGC	1.712 ± 0.0056	1.83 ± 0.13
CAGCAU	1.56 ± 0.1	1.72 ± 0.075
UGAUCC	1.89 ± 0.055	1.98 ± 0.075
GCAGAU	1.43 ± 0.093	1.6 ± 0.083
GGCUUU	1.73 ± 0.03	1.88 ± 0.075
ACCUUC	1.74 ± 0.042	1.83 ± 0.11
AGUCUA	1.55 ± 0.016	1.77 ± 0.12
AUCCUC	1.823 ± 0.0034	1.94 ± 0.079
UGACCC	1.798 ± 0.013	1.89 ± 0.087

Variant	normalized RNA/DNA level without ligand (log10) (cyclic di-GMP [1])	normalized RNA/DNA level with ligand (log10) (cyclic di-GMP [2])
CUCGGU	1.79 ± 0.021	1.89 ± 0.16
AUUAUU	1.63 ± 0.042	1.79 ± 0.1
ACCCCC	1.82 ± 0.064	1.91 ± 0.14
AACCAC	1.668 ± 0.0054	1.81 ± 0.11
UAGACA	1.73 ± 0.058	1.85 ± 0.15
AGAUUU	1.66 ± 0.052	1.81 ± 0.17
GGUAUG	1.59 ± 0.093	1.74 ± 0.04
UUCGUC	1.76 ± 0.037	1.88 ± 0.058
CAUGGC	1.715 ± 0.005	1.84 ± 0.09
UGGUCA	1.78 ± 0.061	1.89 ± 0.067
GGGGCA	1.752 ± 0.011	1.88 ± 0.081
GGGGCC	1.85 ± 0.069	1.94 ± 0.13
GCGCCG	1.781 ± 0.0019	1.9 ± 0.1
GGUACA	1.52 ± 0.034	1.73 ± 0.051
GCGUUG	1.56 ± 0.042	1.75 ± 0.11
AGCGGA	1.52 ± 0.056	1.67 ± 0.086
CUUGUU	1.72 ± 0.07	1.85 ± 0.12
CUUGUG	1.73 ± 0.03	1.91 ± 0.13
GCGAUU	1.47 ± 0.024	1.69 ± 0.19
CGCAAG	1.77 ± 0.024	1.86 ± 0.088
GCAUGA	1.38 ± 0.1	1.54 ± 0.086
AGGUCC	1.86 ± 0.022	1.94 ± 0.08
AGGUCG	1.738 ± 0.013	1.82 ± 0.11
